Two substances from paper PMC5976439 can be followed below.

The target of assay [1] is wild type mononucleosome (recombinant Xenopus laevis histone octamer on 601 DNA) (Xenopus laevis).
For assay [2], the target named is APM (acidic patch mutant) mononucleosome, H2A E61A, E64A, D90A, D92A (Xenopus laevis).
Assay [3] concerns the target wild type mononucleosome (recombinant Xenopus laevis histone octamer on 601 DNA) (Xenopus laevis). This is another data set of the same source.

“SNF2h (human ISWI ATPase), purified from E. coli (from UniProt O60264 1-1052) (enzyme)”: the apparent Km (KM^app) of the gel remodeling rate against SNF2h concentration, 0/60 WT nucleosomes, cooperative binding model in assay [1] worked out at 0.061 µM. Also, in assay [2], the apparent Km (KM^app) of the gel remodeling rate against SNF2h concentration, 0/60 APM nucleosomes, cooperative binding model came to 0.28 µM.
Take “LANA peptide (from the latency associated nuclear antigen of Kaposi's sarcoma-associated herpesvirus)”: the reduction of the rate constant of remodeling of WT nucleosomes by sub-saturating SNF2h, dose-dependent, up to 50 µM LANA peptide; the pair that is blocked: SNF2h and the nucleosome in assay [3] was 200 fold.
